Here are results for two substances from US20210155682A1, “COMPOSITIONS AND METHODS FOR REDUCTION OF LIPOPROTEIN A FORMATION AND TREATMENT OF AORTIC VALVE SCLEROSIS AND AORTIC STENOSIS” (Abcentra, LLC, priority 2018, published 2021).

The target in experiment [1] is purified human LDL, carrying apolipoprotein B100 (human) (UniProt P04114). Kind of experiment: Western blot of covalent assembly of 5 nM 17K r-apo(a) with 100 nM LDL, 8 h, 0.1 µM orticumab. (Immunoblotting shows a protein as a band on a membrane.)
purified human LDL, carrying apolipoprotein B100 (human), sequence (P04114 28-4563): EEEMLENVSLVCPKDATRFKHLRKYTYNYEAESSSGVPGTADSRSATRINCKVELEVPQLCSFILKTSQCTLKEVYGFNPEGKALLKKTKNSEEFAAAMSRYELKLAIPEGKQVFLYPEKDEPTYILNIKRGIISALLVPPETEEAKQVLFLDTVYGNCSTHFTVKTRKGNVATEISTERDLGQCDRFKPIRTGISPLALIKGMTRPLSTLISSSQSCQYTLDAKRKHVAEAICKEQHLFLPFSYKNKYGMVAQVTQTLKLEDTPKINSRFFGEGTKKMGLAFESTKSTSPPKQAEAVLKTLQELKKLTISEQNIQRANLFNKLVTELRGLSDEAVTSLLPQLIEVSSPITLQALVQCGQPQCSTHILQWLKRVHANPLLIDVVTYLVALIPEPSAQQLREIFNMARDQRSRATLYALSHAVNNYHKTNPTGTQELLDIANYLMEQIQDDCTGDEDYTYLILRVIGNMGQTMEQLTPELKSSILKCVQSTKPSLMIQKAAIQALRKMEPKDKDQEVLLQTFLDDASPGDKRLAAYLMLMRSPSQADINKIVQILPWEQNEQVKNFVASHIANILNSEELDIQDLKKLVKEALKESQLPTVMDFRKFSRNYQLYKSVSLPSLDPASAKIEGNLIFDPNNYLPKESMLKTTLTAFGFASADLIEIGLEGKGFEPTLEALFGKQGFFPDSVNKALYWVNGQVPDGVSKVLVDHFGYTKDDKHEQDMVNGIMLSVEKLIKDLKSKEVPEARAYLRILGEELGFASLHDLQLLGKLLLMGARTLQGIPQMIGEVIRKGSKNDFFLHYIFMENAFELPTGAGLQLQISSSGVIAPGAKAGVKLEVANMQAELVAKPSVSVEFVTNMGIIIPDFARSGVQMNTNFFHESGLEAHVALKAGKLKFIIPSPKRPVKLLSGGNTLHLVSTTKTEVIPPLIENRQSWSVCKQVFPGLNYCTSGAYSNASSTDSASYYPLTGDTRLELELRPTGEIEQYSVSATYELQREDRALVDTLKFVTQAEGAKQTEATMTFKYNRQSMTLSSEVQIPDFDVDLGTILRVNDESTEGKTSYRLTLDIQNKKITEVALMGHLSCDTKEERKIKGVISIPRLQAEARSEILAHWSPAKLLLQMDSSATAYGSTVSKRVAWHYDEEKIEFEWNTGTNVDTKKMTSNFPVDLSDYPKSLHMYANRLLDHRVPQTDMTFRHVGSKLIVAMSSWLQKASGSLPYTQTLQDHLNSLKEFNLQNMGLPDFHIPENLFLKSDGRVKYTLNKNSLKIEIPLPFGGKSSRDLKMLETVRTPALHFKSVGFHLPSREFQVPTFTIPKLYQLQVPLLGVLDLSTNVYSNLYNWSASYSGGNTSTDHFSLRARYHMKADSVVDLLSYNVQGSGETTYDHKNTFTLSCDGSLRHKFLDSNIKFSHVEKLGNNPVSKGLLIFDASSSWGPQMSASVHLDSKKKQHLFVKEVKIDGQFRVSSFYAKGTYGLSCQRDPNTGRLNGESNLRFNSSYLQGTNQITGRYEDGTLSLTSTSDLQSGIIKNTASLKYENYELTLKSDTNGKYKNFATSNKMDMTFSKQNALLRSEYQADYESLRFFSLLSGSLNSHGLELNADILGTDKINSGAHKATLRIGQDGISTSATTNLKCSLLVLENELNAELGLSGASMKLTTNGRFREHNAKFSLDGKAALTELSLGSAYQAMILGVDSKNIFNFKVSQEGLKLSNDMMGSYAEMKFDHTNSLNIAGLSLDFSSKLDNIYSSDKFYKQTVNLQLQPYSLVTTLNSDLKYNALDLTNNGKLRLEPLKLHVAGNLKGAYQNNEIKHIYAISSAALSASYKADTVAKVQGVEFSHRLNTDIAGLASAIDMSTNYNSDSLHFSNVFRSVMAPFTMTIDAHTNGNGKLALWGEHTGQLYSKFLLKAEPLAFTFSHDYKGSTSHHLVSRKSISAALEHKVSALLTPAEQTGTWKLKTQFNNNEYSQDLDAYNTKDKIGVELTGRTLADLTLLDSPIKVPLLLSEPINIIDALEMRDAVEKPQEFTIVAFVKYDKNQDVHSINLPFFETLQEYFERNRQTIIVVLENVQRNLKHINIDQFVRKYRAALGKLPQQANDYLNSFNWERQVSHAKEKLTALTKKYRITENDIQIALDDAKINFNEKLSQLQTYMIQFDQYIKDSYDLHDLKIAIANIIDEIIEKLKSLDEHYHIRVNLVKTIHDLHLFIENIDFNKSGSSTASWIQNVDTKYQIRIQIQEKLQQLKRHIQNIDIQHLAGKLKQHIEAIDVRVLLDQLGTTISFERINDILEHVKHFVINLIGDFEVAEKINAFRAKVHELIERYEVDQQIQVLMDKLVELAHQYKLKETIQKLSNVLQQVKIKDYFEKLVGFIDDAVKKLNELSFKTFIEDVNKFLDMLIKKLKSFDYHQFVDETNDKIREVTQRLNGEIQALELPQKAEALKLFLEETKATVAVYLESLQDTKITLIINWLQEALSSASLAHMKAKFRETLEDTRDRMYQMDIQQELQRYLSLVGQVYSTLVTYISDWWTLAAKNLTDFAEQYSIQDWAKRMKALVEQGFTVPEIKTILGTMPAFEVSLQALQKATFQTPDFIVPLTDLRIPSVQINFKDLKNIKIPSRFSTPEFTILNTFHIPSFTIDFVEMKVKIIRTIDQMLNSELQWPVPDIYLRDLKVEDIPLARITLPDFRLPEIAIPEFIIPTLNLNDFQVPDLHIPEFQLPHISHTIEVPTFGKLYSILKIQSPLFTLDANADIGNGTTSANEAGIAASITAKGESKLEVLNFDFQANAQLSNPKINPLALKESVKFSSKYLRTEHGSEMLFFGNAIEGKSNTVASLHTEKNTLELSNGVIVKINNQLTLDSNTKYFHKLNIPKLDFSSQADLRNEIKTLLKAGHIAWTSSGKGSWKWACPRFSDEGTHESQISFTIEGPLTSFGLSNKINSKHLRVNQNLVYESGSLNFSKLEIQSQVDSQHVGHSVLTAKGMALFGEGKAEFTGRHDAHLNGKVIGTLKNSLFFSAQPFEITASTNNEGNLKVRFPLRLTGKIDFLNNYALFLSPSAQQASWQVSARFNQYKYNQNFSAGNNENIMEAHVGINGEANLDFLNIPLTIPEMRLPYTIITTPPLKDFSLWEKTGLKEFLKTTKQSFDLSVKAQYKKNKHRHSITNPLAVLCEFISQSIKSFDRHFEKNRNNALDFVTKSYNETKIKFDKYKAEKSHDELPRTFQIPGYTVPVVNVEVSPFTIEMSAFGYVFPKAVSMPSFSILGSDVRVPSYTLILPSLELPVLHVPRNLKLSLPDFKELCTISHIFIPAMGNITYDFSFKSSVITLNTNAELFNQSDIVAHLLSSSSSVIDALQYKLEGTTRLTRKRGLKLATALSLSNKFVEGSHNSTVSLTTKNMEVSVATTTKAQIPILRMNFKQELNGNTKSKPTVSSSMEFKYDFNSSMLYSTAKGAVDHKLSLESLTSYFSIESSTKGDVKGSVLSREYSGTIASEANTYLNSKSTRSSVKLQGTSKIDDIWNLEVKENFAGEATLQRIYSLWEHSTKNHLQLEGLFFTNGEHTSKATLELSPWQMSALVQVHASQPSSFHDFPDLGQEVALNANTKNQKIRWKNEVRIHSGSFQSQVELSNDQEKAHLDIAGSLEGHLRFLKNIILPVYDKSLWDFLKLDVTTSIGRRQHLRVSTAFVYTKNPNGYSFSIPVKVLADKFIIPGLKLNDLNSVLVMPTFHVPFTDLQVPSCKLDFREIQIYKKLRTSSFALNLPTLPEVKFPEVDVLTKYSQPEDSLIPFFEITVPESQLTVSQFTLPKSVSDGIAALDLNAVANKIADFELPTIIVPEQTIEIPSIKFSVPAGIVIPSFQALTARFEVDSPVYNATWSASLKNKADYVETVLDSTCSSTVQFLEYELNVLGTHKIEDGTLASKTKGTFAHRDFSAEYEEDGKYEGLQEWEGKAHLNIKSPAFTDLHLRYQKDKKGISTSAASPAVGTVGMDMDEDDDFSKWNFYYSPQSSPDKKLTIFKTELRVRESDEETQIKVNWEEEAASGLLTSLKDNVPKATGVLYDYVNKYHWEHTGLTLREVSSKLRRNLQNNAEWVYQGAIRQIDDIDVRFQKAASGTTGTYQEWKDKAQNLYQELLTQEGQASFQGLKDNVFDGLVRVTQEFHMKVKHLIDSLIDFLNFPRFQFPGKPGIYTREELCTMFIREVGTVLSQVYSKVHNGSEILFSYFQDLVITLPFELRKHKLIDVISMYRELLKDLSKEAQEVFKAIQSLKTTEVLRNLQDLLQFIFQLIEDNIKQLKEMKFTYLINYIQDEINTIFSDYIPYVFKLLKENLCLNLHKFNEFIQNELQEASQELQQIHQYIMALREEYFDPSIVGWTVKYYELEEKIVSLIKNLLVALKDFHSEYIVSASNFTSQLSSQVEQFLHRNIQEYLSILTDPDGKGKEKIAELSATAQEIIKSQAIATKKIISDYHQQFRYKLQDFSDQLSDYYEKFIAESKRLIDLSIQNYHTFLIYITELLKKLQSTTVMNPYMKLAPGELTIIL
For experiment [2] the target is unchanged. Description: Western blot of covalent assembly of 5 nM 17K r-apo(a) with 100 nM LDL, 8 h, orticumab at '1' (unit missing, by context 1 µM).
The target is the same in experiment [3]. Description: Western blot of covalent assembly of 5 nM 17K r-apo(a) with 100 nM LDL, 8 h.
Experiment [4] has the same target. Description: Western blot of covalent assembly of 5 nM 17K r-apo(a) with 100 nM LDL, 8 h, 10 µM orticumab.
The next experiment deals with T1, Flu-LDL (Homo sapiens, UniProt P04114).
T1 construct: from tissue; host or cells: plasma of a healthy donor
T1 sequence (P04114 28-4563): as above
Description: Antibody interference with Flu-LDL fluorescence (Flu-LDL alone). The following applies: Flu-LDL 100 nM; orticumab 0.1-1000 nM; FIG. 5.

Experiment [5] concerns the target T2, covalent binding between apo(a) and LDL (Lp(a) formation) (Homo sapiens, UniProt P04114).
T2 construct: made in house; host or cells: apo(a): stably-expressing HEK293 cell lines; LDL: plasma of a healthy donor
Description: Covalent Lp(a) assembly assay, Western blot (% r-Lp(a)). The class given is biochemical. Particulars: for percent inhibition of Lp(a) formation: FIG. 10; for Reduction of covalent Lp(a) compared with control antibodies: 4 hours, orticumab 0.01-10 μM, FIG. 8. The method, then:
Purified LDL (100 nM) and 17K apo(a) (5 nM) were incubated with conditioned serum-free medium (OptiMEM; Gibco) from HEK293 cells in the presence of 0, 0.01, 0.1, 1.0, and 10 μM of orticumab at 37° C. The reactions were mixed thoroughly every hour and stopped after 4 or 8 hrs by adding 4×SDS-PAGE sample buffer. Samples were then boiled for 5 min at 95° C. and subjected to SDS-PAGE on 6% polyacrylamide gel. After electrophoresis, separated proteins were electroblotted onto a PVDF membrane, blocked, and incubated with a monoclonal antibody (A5) specific for apo(a). HRP-conjugated goat anti-mouse IgG secondary antibody was used to develop a signal in the presence of a chemiluminescence reagent and images were captured using a ChemiDoc system (Bio-Rad). Band intensity (BI) of western-blots were quantified using IMAGELAB software for recombinant Lp(a) formation using the following equation: % r-Lp(a)=BI(Lp(a))/[BI(Lp(a))+BI(apo(a))]. A Two-Way ANOVA with Tukey post-hoc test was used to analyze the data in GraphPad Prism 7.0.
Covalent binding between apo(a) and LDL was assessed over time by appearance of Lp(a) protein on a Western blot. Using serum-free HEK293 cell-conditioned medium, Lp(a) formation was evaluated after incubation of 17K r-apo(a) with LDL from 0-8 hours; isolated Lp(a), 17K apo(a) alone, and media alone were used as controls.
Next, the effect of orticumab on inhibition of covalent binding between apo(a) and LDL was assessed by Western blot analysis. 17K r-apo(a) (5 nM) was incubated with LDL (100 nM) in serum free HEK293 cell-conditioned medium for 4 hours at 37° C. in the presence of orticumab at 0.1, 1, 5, and 10 μM.
To determine whether inhibition of Lp(a) formation occurs at a later time point when Lp(a) formation appears to be maximal, the Western blot experiments were repeated after a 0- and 8-hour incubation of 5 nM 17K r-apo(a) and 100 nM LDL in the presence of orticumab at 0.01, 0.1, 1, and 10 μM in serum free HEK293 cell-conditioned medium (FIG. 9). The results were then quantified (FIG. 10) and analyzed.

Experiment [6] addresses T3, non-covalent binding between apo(a) and LDL (Homo sapiens, UniProt P04114).
T3 construct: made in house; host or cells: apo(a): stably-expressing HEK293 cell lines; LDL: plasma of a healthy donor
Kind of experiment: Fluorescence assay of non-covalent binding: quenching of Flu-LDL by 17K r-apo(a).

“Also recorded” adds a separate entry of the source. Where only a bound is given, the exact number is not on record here.

T2 sequence (P04114 28-4563): as above
T3 sequence (P04114 28-4563): as above

For orticumab (antibody), the percent inhibition of Lp(a) formation in experiment [1] worked out at 25.8%; in experiment [2], 35%; in experiment [3], 21.4%; in experiment [4], 73.5%.
As to “orticumab: human monoclonal antibody against apoB100 epitope P45 (residues 661-680); heavy chain SEQ ID No: 10, light chain SEQ ID No: 11”, in the experiment with Flu-LDL, the “Effect on fluorescence of Flu-LDL alone” value is recorded as “increased the fluorescence of Flu-LDL to a higher level; also recorded: enhanced fluorescent signal”. Moreover, the “percent inhibition of Lp(a) formation” value came to 21.37% in experiment [5] (0.01 μM orticumab, 8-hour incubation, 17K r-apo(a) 5 nM, LDL 100 nM); 25.8% in experiment [5] (0.1 μM orticumab, 8-hour incubation, 17K r-apo(a) 5 nM, LDL 100 nM); 73.46% in experiment [5] (10 μM orticumab, 8-hour incubation, 17K r-apo(a) 5 nM, LDL 100 nM); 34.99% in experiment [5] (orticumab "At 1" (unit not given), 8-hour incubation, 17K r-apo(a) 5 nM, LDL 100 nM). For the same substance, in experiment [5] (10 μM orticumab, 4 hours at 37° C., 17K r-apo(a) 5 nM, LDL 100 nM, FIG. 7), the “Lp(a) band on Western blot” value is recorded as “Disappearance of the Lp(a) band”. For the same substance, in experiment [5] (8-hour incubation, orticumab 0.01, 0.1, 1 and 10 μM, FIG. 9, 10), the “Inhibition of Lp(a) formation, in words” value was “significantly inhibited Lp(a) formation; also recorded: decreased Lp(a) covalent assembly at the lowest concentration tested”. For the same substance, the “Reduction of covalent Lp(a) compared with control antibodies” value in experiment [5] (17K r-apo(a) 5 nM, LDL 100 nM) was “behaves similarly in reducing covalent Lp(a)”; in experiment [5] (17K r-apo(a) 5 nM, LDL 100 nM, listed as Orticumab), “as effective as the anti-apoB or anti-apo(a) control antibodies”. The “Inhibition of covalent binding between apo(a) and LDL, overall statement” value in experiment [5] (orticumab 0.01, 0.1, 1 and 10 μM, Western blot) is given as “inhibited”. Further, the “Concentration at which the antibody interfered with fluorescence” value in experiment [6] (Flu-LDL 30 nM, 17K r-apo(a) 300 nM, FIG. 4A) was at most 0.4 nM. Also, in experiment [6] (de-quenching of Flu-LDL fluorescence, FIG. 3), the “Concentration of maximum response in dose-response titration” value stood at 1000 nM. The “Inhibition of non-covalent binding between apo(a) and LDL, overall statement” value in experiment [6] (fluorescence assay, summary of Example 3) is on record as “very effective in inhibiting non-covalent binding”. In experiment [6] (orticumab 0-1000 nM, Flu-LDL 50 nM, 17K r-apo(a) 500 nM, FIG. 3), the “Alleviation of quenching of Flu-LDL by 17K apo(a), antibody titration” value is “able to alleviate the quenching; also recorded: much lower than that of the polyclonal anti-apoB antibody or EACA”. Also, the “Inhibition of non-covalent apo(a)/Flu-LDL binding in 17K apo(a) titration” value in experiment [6] (orticumab 1000 nM, Flu-LDL 50 nM, 17K r-apo(a) 0-1000 nM, FIG. 2) is “inhibited the binding; also recorded: on par with the anti-apo(a) antibody; also recorded: interfered with the apo(a) and Flu-LDL interaction”. For the same substance, in experiment [6] (orticumab 0.4096-100 nM, Flu-LDL 30 nM, 17K r-apo(a) 300 nM, FIG. 4A), the “De-quenching of Flu-LDL fluorescence at lower concentrations” value is “not able to de-quench; also recorded: no effect on de-quenching the fluorescence”.
